Assays:
[1] = target: human FCγRIIIa receptor (human) (UniProt P08637); experiment: BLI; Ratio of the hIgG (hIgG1) control against itself
[2] = target: human FCγRIIIa receptor (human) (UniProt P08637); experiment: BLI (Octet 96), antibody loaded on sensor, FCγRIIIa 200 nM and 2-fold dilutions in solution

Sequence of human FCγRIIIa receptor (human) (P08637 17-208 limits assumed): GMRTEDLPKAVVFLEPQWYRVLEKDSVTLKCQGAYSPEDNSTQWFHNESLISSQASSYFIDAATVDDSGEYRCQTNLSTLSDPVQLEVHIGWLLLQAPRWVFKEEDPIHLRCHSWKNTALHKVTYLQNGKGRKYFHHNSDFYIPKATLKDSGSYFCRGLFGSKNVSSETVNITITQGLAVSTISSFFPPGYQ

Ratio [1]: 1
Kd [2]: 88.6 nM
Substance: control sample hIgG1 (antibody)
